Test results: publication PMC5240640
pIC50: −log10 of the molar value.

Columns and labels:
[1] = biological target: His-tagged FcγRIIa (R&D Systems, cat no. 1330-CD/CF) (UniProt P12318); test: AlphaScreen or HTRF; competitive: biotinylated human IgG1 (200 ng/mL) on streptavidin donor beads, His-tagged FcγR (200 ng/mL) on nickel chelate acceptor beads, unlabeled competitor antibody in serial dilutions; 1xPBS, 0.05% BSA, 0.01% Tween 20, pH 7.2; RT 1 h; IC50 interpolated at 50% maximal activity
[2] = biological target: His-tagged FcγRIIIa (R&D Systems, cat no. 4325-FC) (UniProt P08637); test: as above
[3] = biological target: His-tagged FcγRI (R&D Systems, cat no. 1257-FC) (UniProt P12314); test: as above
[4] = biological target: His-tagged FcγRIIIa (R&D Systems, cat no. 4325-FC) (UniProt P08637)
[5] = biological target: His-tagged FcγRIIIa (R&D Systems, cat no. 4325-FC) (UniProt P08637); remark: listed apart in the source

Row | Substance | pIC50 [1] | pIC50 [2] | pIC50 [3] | ADCC against HCC-827 cells with donor PBMCs, EC20 (antibody concentration needed to elicit 20% lysis) [4] [nM] | ADCC against HCC-827 cells with donor PBMCs, Emax (% compared to complete lysis) [4] [%] | ADCC against H1975 cells with donor PBMCs, EC20 (antibody concentration needed to elicit 20% lysis) [5] [nM] | ADCC against H1975 cells with donor PBMCs, Emax (% compared to complete lysis) [5] [%]
1 | IgG1 isotype - NF (antibody) | 5.90 | 7.49 | 8.06 | – | – | – | –
2 | JNJ-61186372 - LF (EGFR x c-Met bispecific antibody, low fucose) | 6.02 | 8.00 | 8.04 | 0.0376 | 31 | 0.0015 | 59
3 | JNJ-61186372 - NF (EGFR x c-Met bispecific antibody, normal fucose) | 5.97 | 7.42 | 7.94 | 0.645 | 30 | 0.15 | 40
